This note sets out measurements from patent US20230235013A1 (MABSOLVE, published 2023).

The labels stand for the following.
B1: anti-CD20 human IgG1 L234D/L235I/G236R (antibody)
heavy: QVQLQQPGAELVKPGASVKMSCKASGYTFTSYNMHWVKQTPGRGLEWIGAIYPGNGDTSYNQKFKGKATLTADKSSSTAYMQLSSLTSEDSAVYYCARSTYYGGDWYFNVWGAGTTVTVSSASTKGPSVFPLAPSSKSTSGGTAALGCLVKDYFPEPVTVSWNSGALTSGVHTFPAVLQSSGLYSLSSVVTVPSSSLGTQTYICNVNHKPSNTKVDKKVEPKSCDKTHTCPPCPAPEDIRGPSVFLFPPKPKDTLMISRTPEVTCVVVDVSHEDPEVKFNWYVDGVEVHNAKTKPREEQYNSTYRVVSVLTVLHQDWLNGKEYKCKVSNKALPAPIEKTISKAKGQPREPQVYTLPPSRDELTKNQVSLTCLVKGFYPSDIAVEWESNGQPENNYKTTPPVLDSDGSFFLYSKLTVDKSRWQQGNVFSCSVMHEALHNHYTQKSLSLSPGK
light: QIVLSQSPAILSASPGEKVTMTCRASSSVSYIHWFQQKPGSSPKPWIYATSNLASGVPVRFSGSGSGTSYSLTISRVEAEDAATYYCQQWTSNPPTFGGGTKLEIKRTVAAPSVFIFPPSDEQLKSGTASVVCLLNNFYPREAKVQWKVDNALQSGNSQESVTEQDSKDSTYSLSSTLTLSKADYEKHKVYACEVTHQGLSSPVTKSFNRGEC
notes: also called 1-22; copies: 2 + 2
B2: anti-CD20 human IgG1 L234D/L235Q/G236R (antibody)
heavy: QVQLQQPGAELVKPGASVKMSCKASGYTFTSYNMHWVKQTPGRGLEWIGAIYPGNGDTSYNQKFKGKATLTADKSSSTAYMQLSSLTSEDSAVYYCARSTYYGGDWYFNVWGAGTTVTVSSASTKGPSVFPLAPSSKSTSGGTAALGCLVKDYFPEPVTVSWNSGALTSGVHTFPAVLQSSGLYSLSSVVTVPSSSLGTQTYICNVNHKPSNTKVDKKVEPKSCDKTHTCPPCPAPEDQRGPSVFLFPPKPKDTLMISRTPEVTCVVVDVSHEDPEVKFNWYVDGVEVHNAKTKPREEQYNSTYRVVSVLTVLHQDWLNGKEYKCKVSNKALPAPIEKTISKAKGQPREPQVYTLPPSRDELTKNQVSLTCLVKGFYPSDIAVEWESNGQPENNYKTTPPVLDSDGSFFLYSKLTVDKSRWQQGNVFSCSVMHEALHNHYTQKSLSLSPGK
light: QIVLSQSPAILSASPGEKVTMTCRASSSVSYIHWFQQKPGSSPKPWIYATSNLASGVPVRFSGSGSGTSYSLTISRVEAEDAATYYCQQWTSNPPTFGGGTKLEIKRTVAAPSVFIFPPSDEQLKSGTASVVCLLNNFYPREAKVQWKVDNALQSGNSQESVTEQDSKDSTYSLSSTLTLSKADYEKHKVYACEVTHQGLSSPVTKSFNRGEC
notes: also called 1-27; 2-9; copies: 2 + 2
B3: anti-CD20 human IgG1 L234D/L235N/G236R (antibody)
heavy: QVQLQQPGAELVKPGASVKMSCKASGYTFTSYNMHWVKQTPGRGLEWIGAIYPGNGDTSYNQKFKGKATLTADKSSSTAYMQLSSLTSEDSAVYYCARSTYYGGDWYFNVWGAGTTVTVSSASTKGPSVFPLAPSSKSTSGGTAALGCLVKDYFPEPVTVSWNSGALTSGVHTFPAVLQSSGLYSLSSVVTVPSSSLGTQTYICNVNHKPSNTKVDKKVEPKSCDKTHTCPPCPAPEDNRGPSVFLFPPKPKDTLMISRTPEVTCVVVDVSHEDPEVKFNWYVDGVEVHNAKTKPREEQYNSTYRVVSVLTVLHQDWLNGKEYKCKVSNKALPAPIEKTISKAKGQPREPQVYTLPPSRDELTKNQVSLTCLVKGFYPSDIAVEWESNGQPENNYKTTPPVLDSDGSFFLYSKLTVDKSRWQQGNVFSCSVMHEALHNHYTQKSLSLSPGK
light: QIVLSQSPAILSASPGEKVTMTCRASSSVSYIHWFQQKPGSSPKPWIYATSNLASGVPVRFSGSGSGTSYSLTISRVEAEDAATYYCQQWTSNPPTFGGGTKLEIKRTVAAPSVFIFPPSDEQLKSGTASVVCLLNNFYPREAKVQWKVDNALQSGNSQESVTEQDSKDSTYSLSSTLTLSKADYEKHKVYACEVTHQGLSSPVTKSFNRGEC
notes: also called 1-26; copies: 2 + 2
B4: anti-CD20 human IgG1 L234D/L235R/G236R (antibody)
heavy: QVQLQQPGAELVKPGASVKMSCKASGYTFTSYNMHWVKQTPGRGLEWIGAIYPGNGDTSYNQKFKGKATLTADKSSSTAYMQLSSLTSEDSAVYYCARSTYYGGDWYFNVWGAGTTVTVSSASTKGPSVFPLAPSSKSTSGGTAALGCLVKDYFPEPVTVSWNSGALTSGVHTFPAVLQSSGLYSLSSVVTVPSSSLGTQTYICNVNHKPSNTKVDKKVEPKSCDKTHTCPPCPAPEDRRGPSVFLFPPKPKDTLMISRTPEVTCVVVDVSHEDPEVKFNWYVDGVEVHNAKTKPREEQYNSTYRVVSVLTVLHQDWLNGKEYKCKVSNKALPAPIEKTISKAKGQPREPQVYTLPPSRDELTKNQVSLTCLVKGFYPSDIAVEWESNGQPENNYKTTPPVLDSDGSFFLYSKLTVDKSRWQQGNVFSCSVMHEALHNHYTQKSLSLSPGK
light: QIVLSQSPAILSASPGEKVTMTCRASSSVSYIHWFQQKPGSSPKPWIYATSNLASGVPVRFSGSGSGTSYSLTISRVEAEDAATYYCQQWTSNPPTFGGGTKLEIKRTVAAPSVFIFPPSDEQLKSGTASVVCLLNNFYPREAKVQWKVDNALQSGNSQESVTEQDSKDSTYSLSSTLTLSKADYEKHKVYACEVTHQGLSSPVTKSFNRGEC
notes: also called 1-28; copies: 2 + 2
B5: anti-CD20 human IgG1 L234E/L235A/G236R (antibody)
heavy: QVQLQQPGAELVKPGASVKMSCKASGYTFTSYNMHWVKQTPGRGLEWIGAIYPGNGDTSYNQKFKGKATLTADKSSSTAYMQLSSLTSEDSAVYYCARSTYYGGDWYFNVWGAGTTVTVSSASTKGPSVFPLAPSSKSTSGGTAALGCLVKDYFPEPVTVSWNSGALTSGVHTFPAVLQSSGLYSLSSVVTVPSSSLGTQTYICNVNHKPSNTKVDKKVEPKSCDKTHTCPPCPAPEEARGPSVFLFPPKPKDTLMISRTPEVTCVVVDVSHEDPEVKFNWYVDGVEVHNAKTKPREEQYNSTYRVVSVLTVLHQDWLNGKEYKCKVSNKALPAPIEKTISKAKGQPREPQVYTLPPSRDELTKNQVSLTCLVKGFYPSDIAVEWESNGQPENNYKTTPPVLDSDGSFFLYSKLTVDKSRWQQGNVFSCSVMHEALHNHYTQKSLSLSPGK
light: QIVLSQSPAILSASPGEKVTMTCRASSSVSYIHWFQQKPGSSPKPWIYATSNLASGVPVRFSGSGSGTSYSLTISRVEAEDAATYYCQQWTSNPPTFGGGTKLEIKRTVAAPSVFIFPPSDEQLKSGTASVVCLLNNFYPREAKVQWKVDNALQSGNSQESVTEQDSKDSTYSLSSTLTLSKADYEKHKVYACEVTHQGLSSPVTKSFNRGEC
notes: also called 1-32; copies: 2 + 2
B6: anti-CD20 human IgG1 L234E/G236R (antibody)
heavy: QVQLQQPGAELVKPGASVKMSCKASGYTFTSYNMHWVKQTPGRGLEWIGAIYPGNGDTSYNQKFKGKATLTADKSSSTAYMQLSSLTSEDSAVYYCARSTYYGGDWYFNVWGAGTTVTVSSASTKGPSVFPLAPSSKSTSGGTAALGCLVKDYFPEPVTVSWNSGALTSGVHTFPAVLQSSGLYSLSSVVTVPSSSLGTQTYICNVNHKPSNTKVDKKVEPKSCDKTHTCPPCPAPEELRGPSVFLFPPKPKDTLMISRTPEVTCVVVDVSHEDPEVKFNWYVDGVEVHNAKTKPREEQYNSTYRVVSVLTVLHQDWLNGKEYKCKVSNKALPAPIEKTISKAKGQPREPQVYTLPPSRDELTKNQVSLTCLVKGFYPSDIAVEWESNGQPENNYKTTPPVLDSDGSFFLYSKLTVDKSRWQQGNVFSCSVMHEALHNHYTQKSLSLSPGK
light: QIVLSQSPAILSASPGEKVTMTCRASSSVSYIHWFQQKPGSSPKPWIYATSNLASGVPVRFSGSGSGTSYSLTISRVEAEDAATYYCQQWTSNPPTFGGGTKLEIKRTVAAPSVFIFPPSDEQLKSGTASVVCLLNNFYPREAKVQWKVDNALQSGNSQESVTEQDSKDSTYSLSSTLTLSKADYEKHKVYACEVTHQGLSSPVTKSFNRGEC
notes: also called 1-39; 2-15; copies: 2 + 2
B7: anti-CD20 human IgG1 L234D/L235T/G236R (antibody)
heavy: QVQLQQPGAELVKPGASVKMSCKASGYTFTSYNMHWVKQTPGRGLEWIGAIYPGNGDTSYNQKFKGKATLTADKSSSTAYMQLSSLTSEDSAVYYCARSTYYGGDWYFNVWGAGTTVTVSSASTKGPSVFPLAPSSKSTSGGTAALGCLVKDYFPEPVTVSWNSGALTSGVHTFPAVLQSSGLYSLSSVVTVPSSSLGTQTYICNVNHKPSNTKVDKKVEPKSCDKTHTCPPCPAPEDTRGPSVFLFPPKPKDTLMISRTPEVTCVVVDVSHEDPEVKFNWYVDGVEVHNAKTKPREEQYNSTYRVVSVLTVLHQDWLNGKEYKCKVSNKALPAPIEKTISKAKGQPREPQVYTLPPSRDELTKNQVSLTCLVKGFYPSDIAVEWESNGQPENNYKTTPPVLDSDGSFFLYSKLTVDKSRWQQGNVFSCSVMHEALHNHYTQKSLSLSPGK
light: QIVLSQSPAILSASPGEKVTMTCRASSSVSYIHWFQQKPGSSPKPWIYATSNLASGVPVRFSGSGSGTSYSLTISRVEAEDAATYYCQQWTSNPPTFGGGTKLEIKRTVAAPSVFIFPPSDEQLKSGTASVVCLLNNFYPREAKVQWKVDNALQSGNSQESVTEQDSKDSTYSLSSTLTLSKADYEKHKVYACEVTHQGLSSPVTKSFNRGEC
notes: also called 1-30; 2-11; copies: 2 + 2
B8: anti-CD20 human IgG1 L234E/L235E/G236R (antibody)
heavy: QVQLQQPGAELVKPGASVKMSCKASGYTFTSYNMHWVKQTPGRGLEWIGAIYPGNGDTSYNQKFKGKATLTADKSSSTAYMQLSSLTSEDSAVYYCARSTYYGGDWYFNVWGAGTTVTVSSASTKGPSVFPLAPSSKSTSGGTAALGCLVKDYFPEPVTVSWNSGALTSGVHTFPAVLQSSGLYSLSSVVTVPSSSLGTQTYICNVNHKPSNTKVDKKVEPKSCDKTHTCPPCPAPEEERGPSVFLFPPKPKDTLMISRTPEVTCVVVDVSHEDPEVKFNWYVDGVEVHNAKTKPREEQYNSTYRVVSVLTVLHQDWLNGKEYKCKVSNKALPAPIEKTISKAKGQPREPQVYTLPPSRDELTKNQVSLTCLVKGFYPSDIAVEWESNGQPENNYKTTPPVLDSDGSFFLYSKLTVDKSRWQQGNVFSCSVMHEALHNHYTQKSLSLSPGK
light: QIVLSQSPAILSASPGEKVTMTCRASSSVSYIHWFQQKPGSSPKPWIYATSNLASGVPVRFSGSGSGTSYSLTISRVEAEDAATYYCQQWTSNPPTFGGGTKLEIKRTVAAPSVFIFPPSDEQLKSGTASVVCLLNNFYPREAKVQWKVDNALQSGNSQESVTEQDSKDSTYSLSSTLTLSKADYEKHKVYACEVTHQGLSSPVTKSFNRGEC
notes: also called 1-34; copies: 2 + 2
B9: anti-CD20 human IgG1 L234D/L235V/G236R (antibody)
heavy: QVQLQQPGAELVKPGASVKMSCKASGYTFTSYNMHWVKQTPGRGLEWIGAIYPGNGDTSYNQKFKGKATLTADKSSSTAYMQLSSLTSEDSAVYYCARSTYYGGDWYFNVWGAGTTVTVSSASTKGPSVFPLAPSSKSTSGGTAALGCLVKDYFPEPVTVSWNSGALTSGVHTFPAVLQSSGLYSLSSVVTVPSSSLGTQTYICNVNHKPSNTKVDKKVEPKSCDKTHTCPPCPAPEDVRGPSVFLFPPKPKDTLMISRTPEVTCVVVDVSHEDPEVKFNWYVDGVEVHNAKTKPREEQYNSTYRVVSVLTVLHQDWLNGKEYKCKVSNKALPAPIEKTISKAKGQPREPQVYTLPPSRDELTKNQVSLTCLVKGFYPSDIAVEWESNGQPENNYKTTPPVLDSDGSFFLYSKLTVDKSRWQQGNVFSCSVMHEALHNHYTQKSLSLSPGK
light: QIVLSQSPAILSASPGEKVTMTCRASSSVSYIHWFQQKPGSSPKPWIYATSNLASGVPVRFSGSGSGTSYSLTISRVEAEDAATYYCQQWTSNPPTFGGGTKLEIKRTVAAPSVFIFPPSDEQLKSGTASVVCLLNNFYPREAKVQWKVDNALQSGNSQESVTEQDSKDSTYSLSSTLTLSKADYEKHKVYACEVTHQGLSSPVTKSFNRGEC
notes: also called 1-31; copies: 2 + 2
B10: anti-CD20 human IgG1 L234D/L235M/G236R (antibody)
heavy: QVQLQQPGAELVKPGASVKMSCKASGYTFTSYNMHWVKQTPGRGLEWIGAIYPGNGDTSYNQKFKGKATLTADKSSSTAYMQLSSLTSEDSAVYYCARSTYYGGDWYFNVWGAGTTVTVSSASTKGPSVFPLAPSSKSTSGGTAALGCLVKDYFPEPVTVSWNSGALTSGVHTFPAVLQSSGLYSLSSVVTVPSSSLGTQTYICNVNHKPSNTKVDKKVEPKSCDKTHTCPPCPAPEDMRGPSVFLFPPKPKDTLMISRTPEVTCVVVDVSHEDPEVKFNWYVDGVEVHNAKTKPREEQYNSTYRVVSVLTVLHQDWLNGKEYKCKVSNKALPAPIEKTISKAKGQPREPQVYTLPPSRDELTKNQVSLTCLVKGFYPSDIAVEWESNGQPENNYKTTPPVLDSDGSFFLYSKLTVDKSRWQQGNVFSCSVMHEALHNHYTQKSLSLSPGK
light: QIVLSQSPAILSASPGEKVTMTCRASSSVSYIHWFQQKPGSSPKPWIYATSNLASGVPVRFSGSGSGTSYSLTISRVEAEDAATYYCQQWTSNPPTFGGGTKLEIKRTVAAPSVFIFPPSDEQLKSGTASVVCLLNNFYPREAKVQWKVDNALQSGNSQESVTEQDSKDSTYSLSSTLTLSKADYEKHKVYACEVTHQGLSSPVTKSFNRGEC
notes: also called 1-25; copies: 2 + 2

This experiment addresses T1, Histidine-tagged recombinant human FcγRI (CD64) (human, UniProt P12314 16-288).
T1 construct: bought; also called Sino Biological Cat. No. 12056-H08H
Nature of the experiment: SPR, culture supernatant, captured His-FcγRI.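 Further: biacore T200 SPR at 25 °C, anti-His capture, supernatants of HEK293 cells expressing IgG1 Fc variants injected 1 min, reference-subtracted response read 55 s after injection start.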 A general note: Surface plasmon resonance follows binding to a sensor surface in real time, without labels.
Experimental: Binding analysis was carried out by surface plasmon resonance at 25° C. using a Biacore® T200 instrument with Biacore® T200 control software. The running buffer (HBS-EP+) consisted of 0.01 M HEPES pH 7.4, containing 0.15 M NaCl, 3 mM EDTA, and 0.05% v/v Surfactant P20. The sample compartment was held at 4° C. during analysis.
The cell was activated by treatment with EDC/NHS for 7 min. The antibody was diluted to 5 μg/mL in 10 mM sodium acetate pH 4.5 and injected for 7 min at 5 μL/min. The flow cell was deactivated by injection of 1M ethanolamine for 7 min. This process was repeated in the absence of anti-his antibody on a separate flow cell to generate a reference surface. […] Samples of undiluted culture supernatants from HEK293 cells expressing human IgG1 antibodies comprising variant Fc regions were injected for 1 min at 30 μL/min and allowed to disassociate for 2 min. […] Therefore, regeneration between cycles was not necessary. Responses on the test flow cell (coupled with anti-His antibody) were analysed after subtraction of responses on the control flow cell (sham-coupled). The relative binding response was measured 55 sec after the beginning of sample injection. To account for any possible drift in response due to slow dissociation of the His-tagged FcγRI, the binding response was measured relative to a baseline interpolated between report points located before sample injection and at the end of dissociation.
The whole experiment was repeated three times. Due to the relatively crude nature of the samples (variable refractive index, presence of culture media and other cellular products), some sensorgrams were unsatisfactory and were eliminated from analysis. The mean and standard deviation of binding response was then calculated for each sample.
Take B1: the Mean binding response was 25.3 RU.
Consider B2, for which the Mean binding response is 8.3 RU.
The result for B3 reads 26.5 RU; that for B4, 47 RU.
For B5, the Mean binding response worked out at 44.1 RU.
In the case of B6 it was 17.6 RU; in that of B7, 4.3 RU.
On to B8, for which the Mean binding response came to 30.9 RU.
The result for B9 reads 27.2 RU; that for B10, 28.4 RU.
